One molecule from article PMC4072592, “The EJC Binding and Dissociating Activity of PYM Is Regulated in Drosophila” (PLoS Genetics, 2014) can be followed below.

In this assay the target is T1, FL-PYM-GFP (S2 cells) (Drosophila, UniProt P82804 1-207).
T1 construct: Drosophila PYM (wibg, CG30176), full length coding region amplified from ovarian cDNA; also called GFP-tagged FL-PYM; source: S2 cells, transiently transfected, in cytoplasmic extract; not shown: eGFP, C-terminal, kept
T1 sequence (looked up): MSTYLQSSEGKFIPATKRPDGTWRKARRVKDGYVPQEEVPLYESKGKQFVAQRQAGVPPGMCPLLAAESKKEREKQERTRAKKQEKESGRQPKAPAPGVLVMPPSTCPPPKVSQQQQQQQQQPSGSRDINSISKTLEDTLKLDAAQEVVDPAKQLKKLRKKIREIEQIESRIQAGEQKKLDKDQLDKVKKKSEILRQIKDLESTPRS
The experiment in a line: co-IP + cross-linking; as the native GFP-Trap IP from S2 cell extracts, but extracts cross-linked with 1 mM DSP for 1 h at 4°C before the IP; blots quantified by densitometry. The note with it: partners not purified.

B1: Y14-Mago heterodimer, endogenous in S2 cells (complex)
chain 1: not shown
chain 2: not shown
notes: Y14 (Tsunagi), Drosophila, endogenous; Mago nashi (Mago), Drosophila, endogenous; also called Mago and Y14; Mago-Y14; source: endogenous, cytoplasmic extract of Drosophila S2 cells
As to B1, the “fold increase of binding upon DSP treatment against native” value came to 1.7 fold.
